For orientation: Kd means a measure of binding affinity in units of concentration. The low end stands for a tighter complex, the high end for a looser complex.

What all share (experiment): ITC
In general terms: Isothermal titration calorimetry measures the heat released or taken up as one component is titrated into another.

One series concerns the target T1, yedK C2A (Escherichia coli (gene from BL21 …, UniProt P76318 2-222, C2A)).
T1 sequence: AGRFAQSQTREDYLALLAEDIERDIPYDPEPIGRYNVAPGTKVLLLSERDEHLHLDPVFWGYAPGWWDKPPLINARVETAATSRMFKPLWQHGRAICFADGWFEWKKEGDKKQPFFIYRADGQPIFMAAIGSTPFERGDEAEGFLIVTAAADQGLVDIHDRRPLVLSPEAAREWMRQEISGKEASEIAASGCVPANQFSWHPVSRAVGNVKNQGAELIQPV

Another series deals with T2, yedK S84A (Escherichia coli (gene from BL21 …, UniProt P76318 2-222, S84A)).
T2 sequence: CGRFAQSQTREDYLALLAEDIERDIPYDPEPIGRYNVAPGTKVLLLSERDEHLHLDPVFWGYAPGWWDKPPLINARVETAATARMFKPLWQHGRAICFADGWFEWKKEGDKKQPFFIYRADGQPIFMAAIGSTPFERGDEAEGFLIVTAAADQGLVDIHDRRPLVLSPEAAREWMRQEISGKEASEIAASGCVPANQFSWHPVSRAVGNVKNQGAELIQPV

Another series concerns the target T3, yedK K70A (Escherichia coli (gene from BL21 …, UniProt P76318 2-222, K70A)).
T3 sequence: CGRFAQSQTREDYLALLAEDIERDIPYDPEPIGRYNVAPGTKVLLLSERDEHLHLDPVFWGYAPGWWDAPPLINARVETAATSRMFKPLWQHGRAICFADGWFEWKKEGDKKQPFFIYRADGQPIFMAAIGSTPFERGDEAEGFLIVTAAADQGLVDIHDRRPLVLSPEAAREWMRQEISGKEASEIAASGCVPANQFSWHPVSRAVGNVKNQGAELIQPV

In the next series the target is T4, yedK R77A (Escherichia coli (gene from BL21 …, UniProt P76318 2-222, R77A)).
T4 sequence: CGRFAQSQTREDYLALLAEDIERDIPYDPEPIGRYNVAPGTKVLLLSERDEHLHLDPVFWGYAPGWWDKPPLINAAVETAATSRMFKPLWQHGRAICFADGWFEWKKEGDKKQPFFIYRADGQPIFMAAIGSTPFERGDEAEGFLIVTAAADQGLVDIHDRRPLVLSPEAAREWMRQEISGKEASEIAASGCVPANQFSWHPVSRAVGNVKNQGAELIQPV

Another series has as its target T5, yedK R4A (Escherichia coli (gene from BL21 …, UniProt P76318 2-222, R4A)).
T5 sequence: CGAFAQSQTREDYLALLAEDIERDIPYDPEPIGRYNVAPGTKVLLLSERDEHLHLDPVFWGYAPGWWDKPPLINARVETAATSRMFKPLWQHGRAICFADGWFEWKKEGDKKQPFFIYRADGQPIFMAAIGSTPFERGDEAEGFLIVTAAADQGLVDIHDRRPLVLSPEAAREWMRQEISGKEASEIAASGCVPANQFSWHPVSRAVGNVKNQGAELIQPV

In a further series the target is T6, yedK H160A (Escherichia coli (gene from BL21 …, UniProt P76318 2-222, H160A)).
T6 sequence: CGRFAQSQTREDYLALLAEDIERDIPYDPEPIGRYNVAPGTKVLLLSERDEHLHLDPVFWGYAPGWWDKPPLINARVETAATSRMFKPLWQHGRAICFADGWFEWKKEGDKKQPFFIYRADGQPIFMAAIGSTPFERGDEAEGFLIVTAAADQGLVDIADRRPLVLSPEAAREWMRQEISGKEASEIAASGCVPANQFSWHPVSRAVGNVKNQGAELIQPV

In another series the target is T7, yedK N75A (Escherichia coli (gene from BL21 …, UniProt P76318 2-222, N75A)).
T7 sequence: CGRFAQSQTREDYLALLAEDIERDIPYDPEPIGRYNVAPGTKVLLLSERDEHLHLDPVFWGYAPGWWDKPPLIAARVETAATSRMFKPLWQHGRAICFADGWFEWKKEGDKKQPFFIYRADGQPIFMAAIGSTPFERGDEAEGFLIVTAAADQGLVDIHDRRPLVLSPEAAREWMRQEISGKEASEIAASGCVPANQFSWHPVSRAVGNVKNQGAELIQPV

The target of a further series is T8, yedK W106A (Escherichia coli (gene from BL21 …, UniProt P76318 2-222, W106A)).
T8 sequence: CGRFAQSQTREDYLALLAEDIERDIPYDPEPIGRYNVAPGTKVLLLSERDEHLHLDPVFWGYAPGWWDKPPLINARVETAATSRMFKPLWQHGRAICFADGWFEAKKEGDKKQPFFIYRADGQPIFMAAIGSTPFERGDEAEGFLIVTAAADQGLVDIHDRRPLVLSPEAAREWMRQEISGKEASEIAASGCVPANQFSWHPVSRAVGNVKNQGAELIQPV

CGGTCGATTC (ssDNA) [ssDNA]: the dissociation constant (Kd) with yedK C2A turned out to be 7.9 µM; in the series with yedK S84A it was 10.8 µM; with yedK K70A it was 4 µM; with yedK R4A, 34.6 µM; in the series with yedK H160A, 1.4 µM; with yedK N75A, 37.9 µM. Moreover, the Kd with yedK W106A amounted to 18.7 µM. For the same molecule, the binding result in the series with yedK R77A was “no binding”.

The values are drawn from article PMC6821365.
